Assay results taken from patent US20090068207A1, “Compositions Containing Beta 2-Glycoprotein I-Derived Peptides for the Prevention and/or Treatment of Vascular Disease” (Vascular Biogenics Ltd., priority 2005, published 2009).

Assays:
[1] = test system: inguinal lymph node cells; test: Lymph node cell proliferation (stimulation index) to sensitizing antigen β2GPI after mucosal administration; format: in vivo, mice
Procedure: Immunization: Subcutaneous immunization with human β2GPI: Human β2GPI was prepared from human plasma pool as described above. For immunization, human β2GPI was dissolved in PBS and mixed with equal volumes of Freund's incomplete adjuvant. Immunizations were performed by single subcutaneous injection of 10 μg antigen/mouse in 0.1 ml volume. Three days following the last mucosal administration of plaque associated molecules the mice received one immunization, and were sacrificed 10 days post immunization.
Proliferation assays: Mice were exposed to the tested antigen as described for assessment of atherosclerosis, and then immunized (one to three days following the last exposure) subcutaneously with 10 μg β2GPI in 0.1 ml PBS, prepared from purified human β2GPI as described above.
Proliferation was assayed ten days after immunization with the β2GPI as follows: Draining inguinal lymph nodes were prepared by mashing the tissues on 100 mesh screens. Red blood cells were lysed with cold sterile double distilled water (6 ml) for 30 seconds and 2 ml of NaCl 3.5% was added. Incomplete medium was added (10 ml), cells were centrifuged for 7 min at 1,700 rpm, resuspended in RPMI medium and counted in a haemocytometer at 1:20 dilution (10 μl cells+190 μl Trypan Blue). Proliferation was measured by the incorporation of [^3H] Thymidine into DNA in triplicate samples of 100 μl of the packed cells (1×10^6 cells/ml) in a 96 well microtiter plate. […] Thymidine (0.5 μCi/well) was added. After an additional 12-24 hours of incubation the cells were harvested and transferred to glass fiber filters using a cell harvester (Brandel) and counted using β-counter (Lumitron). Proliferation was measured by the incorporation of [^3H] thymidine into DNA during the final 12 h of incubation. The results are expressed as the stimulation index (S.I.): the ratio of the mean radioactivity (cpm) of the antigen to the mean background (cpm) obtained in the absence of the antigen. Standard deviation was always <10% of the mean cpm.
Tolerance induced by mucosal exposure to plaque-associated molecules may be mediated by suppression of specific immune responses to antigenic portions (epitopes) of these plaque associated molecules. Lymphocyte proliferation in response to mucosal (nasal and oral) exposure to human β2GPI was measured in […]. 9 male, 5 week old LDL-RD mice were divided into 3 groups. In group A (n=3) oral tolerance was induced with 100 μg/mouse β2GPI suspended in 0.1 ml PBS, administered by gavage, as described above, every other day for 5 days. In group B (n=3) nasal tolerance was induced with 10 μg/mouse β2GPI suspended in 10 μl PBS, administered intranasally as described above, every other day for 5 days. The mice in group C (n=3) received oral administration of 200 μl PBS every other day for 5 days. Immune reactivity was stimulated in all mice by immunization with human β2GPI as described above in the Materials and Methods section, one day after the last feeding. Ten days after the immunization lymph nodes were collected for assay of proliferation (as expressed in the Stimulation Index SI). All mice were fed normal chow-diet containing 4.5% fat by weight (0.02% cholesterol) and water ad libitum.

lymph node cells [2] = test: Cytokine secretion by lymph node cells of tolerized mice (ELISA of conditioned medium); format: in vivo
Procedure: IFN-γ, IL-4, IL-10 and TGF-β secretion in tolerized lymph nodes: Conditioned medium was obtained from the lymph node proliferation experiments following 48 h of culture in the presence of β2GPI.

[3] = test system: LDL receptor deficient mice; settings: oral administration, U.S. Ser. No. 09/806,400; cited from earlier work
[4] = test system: anti-β2GPI antibodies and antibody isotypes; test: Serum antibody levels and isotypes (ELISA); format: in vivo, mice; settings: oral administration, subsequently immunized with β2GPI; data not shown
Procedure: Detection of anti-b2GPI antibodies and antibody isotypes: β2GPI (10 μg/ml) was coated onto flat bottom 96-well ELISA plates (Nalge-Nunc, Int. Rochester, N.Y.) by overnight incubation and the assay was performed as previously described (George et al, Circulation, 1998; 15:1108-15) IgG, IgA and IgM isotypes in the sera of β2GPI tolerant and non-tolerant mice were determined by an ELISA kit (Southern Biotechnology Associates, Birmingham, Ala., USA) according to the manufacture's instructions.
None of the orally-administered antigens induced production of antiβ2GPI antibodies (data not shown).

atherosclerotic lesions = test: Immunohistochemistry of atherosclerotic lesions (β2GPI, CD3, Mac-1); format: in vivo, mice
From the text: Immunohistochemistry of atherosclerotic lesions: Immunohistochemical staining for CD3, macrophages and β2GPI content were done on aortic sinus 5-μm-thick frozen sections. Primary antibodies used for probing were rat anti-mouse CD3, rat anti-mouse Mac-1 and a polyclonal rat anti-mouse β2GPI antibodies (George et al Circulation 2000; 102:1822-7). Slides were developed with the three amino-9-ethylcarbonasole (AEC) substrate. Sections were counterstained with hematoxylin. Spleen sections were used as a positive control. Staining in the absence of 1st or 2nd antibody was used as a negative control. β2GPI presence were evaluated by its occupancy of plaque area by computerized morphometry as described previously for VCAM-1 (George et al, Circ Res. 2000; 86:1203-10).
No effect of oral β2GPI on the number of CD3 positive cells (0-5 cells/plaque in all groups; data not shown) or macrophage (Mac-1 positive) content of the fatty streaks was observed.

lymph node cells [5] = test: Lymph node cell proliferation (stimulation index) to oxLDL after oral administration; format: in vivo, mice
Procedure: Proliferation was measured by the incorporation of [^3H] thymidine into DNA during the final 12 h of incubation. The results were computed as stimulation index: the ratio of the mean cpm of the antigen to the mean background cpm obtained in the absence of the antigen.
[…] Three days after the final administration of peptides, the mice were immunized with OxLDL in incomplete Freund's adjuvant, as described in the Examples above, and lymph node cells assessed for antigen (OxLDL) stimulation of proliferation 10 days later. Proliferation was assessed by incorporation of thymidine, expressed as the Stimulation Index, as described.

B1: β2GPI: beta2-glycoprotein I, species not stated at the place (human or bovine; FIG. 7 legend says bovine) (protein, UniProt P17690 20-345, looked up)
Beta-2-glycoprotein 1: GRTCPKPDELPFSTVVPLKRTYEPGEQIVFSCQPGYVSRGGIRRFTCPLTGLWPINTLKCMPRVCPFAGILENGTVRYTTFEYPNTISFSCHTGFYLKGASSAKCTEEGKWSPDLPVCAPITCPPPPIPKFASLSVYKPLAGNNSFYGSKAVFKCLPHHAMFGNDTVTCTEHGNWTQLPECREVRCPFPSRPDNGFVNHPANPVLYYKDTATFGCHETYSLDGPEEVECSKFGNWSAQPSCKASCKLSIKRATVIYEGERVAIQNKFKNGMLHGQKVSFFCKHKEKKCSYTEDAQCIDGTIEIPKCFKEHSSLAFWKTDASDVKPC
For B1, the “reduction of the stimulation index of lymph node cells” value ([1]; mucosal administration to LDL-RD mice, Examples 3 and 6) was “up to 70%”, the “suppression of primary cellular response (lymph node cell proliferation) to β2GPI” value ([1]; oral 5 doses of 500 μg per mouse, stimulation with 2.0 μg/ml β2GPI, LDL-RD mice) was greater than 60% and the “influence on primary cellular response to BSA” value ([1]; oral administration, mice immunized with BSA, results not shown) was “did not influence”. The “TGF-β levels in the conditioned medium of lymph node cells” value (lymph node cells [2]; cells from β2GPI-tolerized mice) was “below the detection threshold”, the “levels of IFN-γ secreted by lymph node cells” value (lymph node cells [2]; cells from β2GPI-tolerized mice, stimulation with β2GPI, mean value) was 1802 ± 588 pg/mL and the “Levels of IL-4 in medium relative to control animals” value (lymph node cells [2]; oral administration, immunized with β2GPI, cells incubated 48 h with β2GPI, p<0.01) was “three times higher”. The “IL-10 secretion relative to BSA-treated controls” value (lymph node cells [2]; oral administration, immunized with β2GPI, in-vitro priming with β2GPI, p<0.05) was 2.6 times, the “reduction in atherogenesis by oral tolerance” value [3] was “approximately 30%” and the “IgM, IgA, or IgG total antibody levels and isotype distribution” value [4] was “did not alter”. For the same molecule, the “content of plaque-expressed β2GPI, mean percent occupancy” value (atherosclerotic lesions; oral 500 μg/dose, LDL-RD mice, data not shown) was 15±5%, the “effect on number of CD3 positive cells or macrophage (Mac-1 positive) content of the fatty streaks” value (atherosclerotic lesions; oral administration, LDL-RD mice) was “No effect” and the “number of CD3 positive cells” value (atherosclerotic lesions; oral administration, all groups, data not shown) was 0-5 cells/plaque. For the same molecule, the “suppression of primary cellular response (lymph node cell proliferation) to oxLDL” value (lymph node cells [5]; oral 5 doses of 500 μg per mouse, stimulation with 20 μg/ml oxLDL, LDL-RD mice) was 74% and the “reduction in Stimulation Index of OxLDL-sensitized lymph node cells” value (lymph node cells [5]; oral, 3 doses of 100 μg, LDL-RD mice immunized with OxLDL) was 87%.
